In patent US20180291335A1, “MODIFIED POLYNUCLEOTIDES FOR ALTERING CELL PHENOTYPE” (ModernaTX, Inc., priority 2012, published 2018):

B1: 100% modification: G-CSF mRNA (SEQ ID NO: 408, Cap1) completely modified with 5mC and pseudoU (nucleic acid)
chain: GGGAAAUAAGAGAGAAAAGAAGAGUAAGAAGAAAUAUAAGAGCCACCAUGGCCGGUCCCGCGACCCAAAGCCCCAUGAAACUUAUGGCCCUGCAGUUGCUGCUUUGGCACUCGGCCCUCUGGACAGUCCAAGAAGCGACUCCUCUCGGACCUGCCUCAUCGUUGCCGCAGUCAUUCCUUUUGAAGUGUCUGGAGCAGGUGCGAAAGAUUCAGGGCGAUGGAGCCGCACUCCAAGAGAAGCUCUGCGCGACAUACAAACUUUGCCAUCCCGAGGAGCUCGUACUGCUCGGGCACAGCUUGGGGAUUCCCUGGGCUCCUCUCUCGUCCUGUCCGUCGCAGGCUUUGCAGUUGGCAGGGUGCCUUUCCCAGCUCCACUCCGGUUUGUUCUUGUAUCAGGGACUGCUGCAAGCCCUUGAGGGAAUCUCGCCAGAAUUGGGCCCGACGCUGGACACGUUGCAGCUCGACGUGGCGGAUUUCGCAACAACCAUCUGGCAGCAGAUGGAGGAACUGGGGAUGGCACCCGCGCUGCAGCCCACGCAGGGGGCAAUGCCGGCCUUUGCGUCCGCGUUUCAGCGCAGGGCGGGUGGAGUCCUCGUAGCGAGCCACCUUCAAUCAUUUUUGGAAGUCUCGUACCGGGUGCUGAGACAUCUUGCGCAGCCGUGAAGCGCUGCCUUCUGCGGGGCUUGCCUUCUGGCCAUGCCCUUCUUCUCUCCCUUGCACCUGUACCUCUUGGUCUUUGAAUAAAGCCUGAGUAGGAAG
modifications: Cap1; full 5mC and pseudoU modification; Description of Artificial Sequence: Synthetic Transcript Sequence
B2: 2′Fluoroguanine triphosphate/pseudouridine: G-CSF mRNA (SEQ ID NO: 408) fully modified with the named combination (nucleic acid)
chain: B1 chain
modifications: 2'-fluoroguanine/pseudouridine modified; Description of Artificial Sequence: Synthetic Transcript Sequence
B3: 0% modification: unmodified G-CSF mRNA (SEQ ID NO: 408), not modified with 5mC and pseudoU (nucleic acid)
chain: B1 chain
modifications: Description of Artificial Sequence: Synthetic Transcript Sequence
B4: 25% modification: G-CSF mRNA (SEQ ID NO: 408) partially modified with 5mC and pseudoU, 25% modification (nucleic acid)
chain: B1 chain
modifications: 25% 5mC and pseudoU modification; Description of Artificial Sequence: Synthetic Transcript Sequence
B5: 50% modification: G-CSF mRNA (SEQ ID NO: 408) partially modified with 5mC and pseudoU, 50% modification (nucleic acid)
chain: B1 chain
modifications: 50% 5mC/pseudoU modified; Description of Artificial Sequence: Synthetic Transcript Sequence
B6: 75% modification: G-CSF mRNA (SEQ ID NO: 408) partially modified with 5mC and pseudoU, 75% modification (nucleic acid)
chain: B1 chain
modifications: 75% 5mC/pseudoU modified; Description of Artificial Sequence: Synthetic Transcript Sequence

What was measured:
Assay type in all cases: cell-based, human
interferon-alpha (IFN-α) = test: In vitro screening in PBMC: interferon-alpha induction by ELISA; conditions: summary grade, IFN-alpha, G-CSF mRNA in PBMC
Description: The supernatant was harvested and stored frozen until analyzed by ELISA to determine the G-CSF protein expression, and the induction of the cytokines interferon-alpha (IFN-α) and tumor necrosis factor alpha (TNF-α).

HeLa cells [1] = test: In vitro screening in HeLa cells, luciferase modified RNA; set-up: key to Protein (Luc; HeLa): the protein production of HeLa is judged by “+,” “+1-” and “−”; the protein production of HeLa is judged by “+,” “+1-” and “−”; the protein production of HeLa is judged by “+,” “+1-” and “−”
Protocol: The day before transfection, 20,000 HeLa cells (ATCC no. CCL-2; Manassas, Va.) were harvested by treatment with Trypsin-EDTA solution (LifeTechnologies, Grand Island, N.Y.) and seeded in a total volume of 100 ul EMEM medium (supplemented with 10% FCS and 1× Glutamax) per well in a 96-well cell culture plate (Corning, Manassas, Va.). The cells were grown at […] in 5% CO2 atmosphere overnight. […] Lipofectamine 2000 (LifeTechnologies, Grand Island, N.Y.) was used as transfection reagent and 0.2 ul were diluted in 10 ul final volume of OPTI-MEM. After 5 minutes of incubation at room temperature, both solutions were combined and incubated an additional 15 minute at room temperature. Then the 20 ul combined solution was added to the 100 ul cell culture medium containing the HeLa cells and incubated at room temperature.
After 18 to 22 hours of incubation cells expressing luciferase were lysed with 100 ul of Passive Lysis Buffer (Promega, Madison, Wis.) according to manufacturer instructions. Aliquots of the lysates were transferred to white opaque polystyrene 96-well plates (Corning, Manassas, Va.) and combined with 100 ul complete luciferase assay solution (Promega, Madison, Wis.). The lysate volumes were adjusted or diluted until no more than 2 mio relative light units (RLU) per well were detected for the strongest signal producing samples and the RLUs for each chemistry tested are shown in Table 19. The plate reader was a BioTek Synergy H1 (BioTek, Winooski, Vt.). The background signal of the plates without reagent was about 200 relative light units per well.

HeLa cells [2] = test: G-CSF modified mRNA transfected in HeLa cells, G-CSF ELISA; set-up: key to Protein (G-CSF; HeLa): the protein production of HeLa is judged by “+,” “+1-” and “−”; the protein production of HeLa is judged by “+,” “+1-” and “−”; the protein production of HeLa is judged by “+,” “+1-” and “−”
Protocol: To assess the activity of all our different chemical modifications in the context of a second open reading frame, we replicated experiments previously conducted using luciferase mRNA, with human G-CSF mRNA. […] The mutant T7 polymerase was obtained commercially (Durascribe® T7 Transcription kit (Cat. No. DS010925) (Epicentre®, Madison, Wis.).
The modified RNA in Tables 27 and 28 were transfected in vitro in HeLa cells or added to rabbit reticulysates (250 ng of modified mRNA) as indicated. […] In Table 27, “NT” means not tested.

[3] = tested on: peripheral blood mononuclear cells (PBMC); test: In vitro PBMC study, percent modification: G-CSF expression by ELISA; conditions: for G-CSF Expression: 22 hours after transfection; for Average G-CSF: PBMC, average of three donors
Protocol: 480 ng of G-CSF mRNA modified with 5-methylcytosine (5mC) and pseudouridine (pseudoU) or unmodified G-CSF mRNA was transfected with 0.4 uL of Lipofectamine 2000 into peripheral blood mononuclear cells (PBMC) from three normal blood donors (D1, D2, and D3). […] The supernatant was harvested and run by ELISA 22 hours after transfection to determine the protein expression. The expression of IFN-alpha and TNF-alpha may be a secondary effect from the transfection of the G-CSF mRNA.

TNF-alpha = test: In vitro PBMC study, percent modification: TNF-alpha expression by ELISA; conditions: for Average TNF-a: average of three donors; for G-CSF/TNF-alpha (PC ratio): protein/cytokine ratio from averages
Protocol: (§1) The supernatant was harvested and run by ELISA 22 hours after transfection to determine the protein expression.

IFN-alpha = test: In vitro PBMC study, percent modification: IFN-alpha expression by ELISA; conditions: for Average IFN-a: average of three donors; for G-CSF/IFN-alpha (PC ratio): protein/cytokine ratio from averages
Protocol: as §1

[4] = PBMC donor D1, 22 hours after transfection
[5] = PBMC donor D2, 22 hours after transfection
[6] = PBMC donor D3, 22 hours after transfection
[7] = PBMC, versus natural G-CSF mRNA

Row | Molecule | G-CSF Expression ([3]; PBMC donor D1, 480 ng mRNA) | G-CSF Expression ([3]; PBMC donor D2, 480 ng mRNA) | G-CSF Expression ([3]; PBMC donor D3, 480 ng mRNA) | TNF-alpha Expression (TNF-alpha; [4]) | TNF-alpha Expression (TNF-alpha; [5]) | TNF-alpha Expression (TNF-alpha; [6]) | Average TNF-a (TNF-alpha; PBMC) | G-CSF/TNF-alpha (PC ratio) (TNF-alpha; PBMC) | IFN-alpha Expression (IFN-alpha; [4]) | IFN-alpha Expression (IFN-alpha; [5]) | IFN-alpha Expression (IFN-alpha; [6]) | Average IFN-a (IFN-alpha; PBMC) | G-CSF/IFN-alpha (PC ratio) (IFN-alpha; PBMC) | Average G-CSF [3] | also measured
1 | N^6-methyladenosine (m^6A) |  |  |  |  |  |  |  |  |  |  |  |  |  |  | Cytokines (G-CSF; PBMC) (interferon-alpha (IFN-α)): ++++ (“++++” means greater than 1,000 pg/ml interferon-alpha (IFN-alpha)); Protein (Luc; HeLa) (HeLa cells [1]; summary grade, luciferase mRNA in HeLa): −; Protein (G-CSF; HeLa) (HeLa cells [2]; summary grade, G-CSF mRNA in HeLa): −
2 | 2′-F-adenosine |  |  |  |  |  |  |  |  |  |  |  |  |  |  | Protein (Luc; HeLa) (HeLa cells [1]; Table 30, non-naturally occurring chemistries, luciferase modified mRNA in HeLa, ** = second result, IVT with mutant T7 polymerase): −**
3 | Luciferase: control Luciferase mRNA (SEQ ID NO: 409, Cap1) fully modified 5meC and pseudoU [reference compound] | 90.2 pg/mL | 0.0 pg/mL | 22.1 pg/mL |  |  |  |  |  |  |  |  |  |  |  | 
4 | B1 | 1968.9 pg/mL | 2595.6 pg/mL | 2835.7 pg/mL | 115.0 pg/mL | 15.0 pg/mL | 11.1 pg/mL | 47 pg/mL | 52 | 336.5 pg/mL | 78.0 pg/mL | 46.4 pg/mL | 153 pg/mL | 16 | 2466 pg/mL | better ratio of protein/cytokine production than without any modification, TNF-alpha (TNF-alpha; [7]): 27 fold; better ratio of protein/cytokine production than without any modification, IFN-alpha (IFN-alpha; [7]): 100 fold
5 | B2 |  |  |  |  |  |  |  |  |  |  |  |  |  |  | G-CSF protein (pg/ml) HeLa cells (HeLa cells [2]; HeLa cells, combination chemistries, ELISA): 1,136 pg/ml
6 | B3 | 194.8 pg/mL | 182.0 pg/mL | 183.3 pg/mL | 154.6 pg/mL | 96.8 pg/mL | 45.9 pg/mL | 99 pg/mL | 1.9 | 1421.6 pg/mL | 810.5 pg/mL | 1260.5 pg/mL | 1164 pg/mL | 0.16 | 186 pg/mL | 
7 | B4 | 139.3 pg/mL | 126.9 pg/mL | 102.0 pg/mL | 85.6 pg/mL | 26.6 pg/mL | 19.8 pg/mL | 44 pg/mL | 2.8 | 564.3 pg/mL | 400.4 pg/mL | 670.7 pg/mL | 545 pg/mL | 0.2 | 122 pg/mL | 
8 | B5 | 188.9 pg/mL | 187.2 pg/mL | 191.9 pg/mL | 49.6 pg/mL | 24.1 pg/mL | 10.4 pg/mL | 28 pg/mL | 6.8 | 478.9 pg/mL | 261.1 pg/mL | 389.7 pg/mL | 376 pg/mL | 0.5 | 189 pg/mL | 
9 | B6 | 566.7 pg/mL | 631.4 pg/mL | 659.5 pg/mL | 107.4 pg/mL | 21.7 pg/mL | 11.8 pg/mL | 47 pg/mL | 13 | 339.6 pg/mL | 107.6 pg/mL | 160.9 pg/mL | 202 pg/mL | 3.1 | 619 pg/mL | 
